Measurements from patent publication US20190183966A1.

Target: human FGF21 receptor (FGFR1) stably expressed on PathHunter U2OS cells (human) (UniProt P11362)
Assay: cell-based or functional assay

human FGF21 receptor (FGFR1) stably expressed on PathHunter U2OS cells (human), sequence (P11362 22-822): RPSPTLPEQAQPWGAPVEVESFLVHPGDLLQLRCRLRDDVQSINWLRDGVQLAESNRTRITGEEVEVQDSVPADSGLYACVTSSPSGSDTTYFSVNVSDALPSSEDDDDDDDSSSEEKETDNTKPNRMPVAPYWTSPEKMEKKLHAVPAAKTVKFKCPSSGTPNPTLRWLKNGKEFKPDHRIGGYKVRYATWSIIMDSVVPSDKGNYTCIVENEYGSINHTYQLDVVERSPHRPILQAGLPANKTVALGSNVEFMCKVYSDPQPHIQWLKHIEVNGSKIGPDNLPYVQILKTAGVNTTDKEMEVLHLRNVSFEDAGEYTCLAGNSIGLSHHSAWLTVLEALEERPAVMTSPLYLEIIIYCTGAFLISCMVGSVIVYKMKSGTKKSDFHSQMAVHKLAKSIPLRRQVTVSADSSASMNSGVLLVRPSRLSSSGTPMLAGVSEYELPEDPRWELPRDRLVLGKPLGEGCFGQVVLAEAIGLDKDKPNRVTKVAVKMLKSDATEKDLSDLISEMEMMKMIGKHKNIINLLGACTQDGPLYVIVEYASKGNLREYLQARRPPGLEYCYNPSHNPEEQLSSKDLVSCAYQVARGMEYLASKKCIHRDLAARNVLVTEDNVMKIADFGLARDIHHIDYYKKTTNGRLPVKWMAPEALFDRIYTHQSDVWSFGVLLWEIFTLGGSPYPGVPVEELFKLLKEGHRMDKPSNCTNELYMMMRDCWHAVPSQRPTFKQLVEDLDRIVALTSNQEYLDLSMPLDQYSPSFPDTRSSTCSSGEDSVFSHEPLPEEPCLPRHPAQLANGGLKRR

Row | EC50, recruitment of the co-receptor beta-Klotho | Substance
1 | 0.4 µg/mL | VitD-(3)-PEG2K-FGF21 (from UniProt Q9NSA1 32-209) (ligand)
2 | 0.16 µg/mL | FGF21 protein with I3C substitution and His6 tag (from UniProt Q9NSA1 32-209) (ligand)
3 | 0.13 µg/mL | VitD-(25)-PEG2K-FGF21 (from UniProt Q9NSA1 32-209) (ligand)
